Assay results taken from patent US20230265146A1.
Several values for one entry are separate records, joined by “and”; a condition that tells them apart may be missing. Equal values may be shown once.

Target: human IL-12 receptor on HEK-Blue IL-12 reporter cells (human) (UniProt P42701)
Sequence (Q99665 24-862, chain 2 of 2, other chains not shown): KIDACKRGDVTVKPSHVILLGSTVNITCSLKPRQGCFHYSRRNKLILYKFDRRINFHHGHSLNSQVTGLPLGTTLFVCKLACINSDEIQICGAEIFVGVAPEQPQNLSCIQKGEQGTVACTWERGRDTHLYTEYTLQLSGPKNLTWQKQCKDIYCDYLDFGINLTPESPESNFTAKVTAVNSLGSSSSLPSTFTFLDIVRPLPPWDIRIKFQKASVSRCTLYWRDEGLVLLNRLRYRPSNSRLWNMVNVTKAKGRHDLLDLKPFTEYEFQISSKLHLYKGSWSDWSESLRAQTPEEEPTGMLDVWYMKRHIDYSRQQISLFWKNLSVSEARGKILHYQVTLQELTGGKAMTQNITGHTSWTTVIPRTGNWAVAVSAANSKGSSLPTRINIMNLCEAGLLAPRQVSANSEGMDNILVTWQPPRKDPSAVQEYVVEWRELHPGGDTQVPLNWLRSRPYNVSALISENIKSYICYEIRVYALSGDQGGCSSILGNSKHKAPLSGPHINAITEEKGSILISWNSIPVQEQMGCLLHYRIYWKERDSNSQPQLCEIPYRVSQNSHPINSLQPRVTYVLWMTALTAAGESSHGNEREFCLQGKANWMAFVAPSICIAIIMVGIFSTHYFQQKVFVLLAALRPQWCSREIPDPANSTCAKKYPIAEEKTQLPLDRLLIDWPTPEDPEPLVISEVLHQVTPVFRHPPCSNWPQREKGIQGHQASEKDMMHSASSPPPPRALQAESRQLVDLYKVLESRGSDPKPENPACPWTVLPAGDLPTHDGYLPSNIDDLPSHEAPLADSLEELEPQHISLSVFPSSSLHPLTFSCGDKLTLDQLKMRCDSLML

EC50 (read off the curve): 90 pM and 50 pM
Substance: IL12 (ligand)
